Several values for one entry are separate records, joined by “and”; a condition that tells them apart may be missing. Equal values may be shown once.
Conditions: Bos taurus, pH 7, Absorbance, Sodium phosphate 100 mM

Cytochrome b wild type, P00157, sequence (P00157 whole entry): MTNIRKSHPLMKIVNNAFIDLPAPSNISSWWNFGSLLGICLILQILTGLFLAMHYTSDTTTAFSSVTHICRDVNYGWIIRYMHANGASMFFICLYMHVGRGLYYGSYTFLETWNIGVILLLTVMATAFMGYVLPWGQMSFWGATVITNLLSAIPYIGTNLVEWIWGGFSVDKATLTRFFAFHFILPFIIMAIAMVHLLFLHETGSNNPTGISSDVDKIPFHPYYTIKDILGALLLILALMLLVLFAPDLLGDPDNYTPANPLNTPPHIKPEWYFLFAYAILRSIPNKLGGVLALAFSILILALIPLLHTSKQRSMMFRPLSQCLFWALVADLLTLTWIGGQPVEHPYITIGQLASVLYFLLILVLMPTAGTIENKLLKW

Cytochrome b wild type, P00157
denaturant midpoint (higher = more stable) (25 °C, Urea): 6.8 M
unfolding enthalpy (van 't Hoff) (Thermal): 90.1 kcal/mol and 85.6 kcal/mol

Reference: FireProtDB (doi:10.1016/s0301-4622(99)00119-2)
